Substitutions are numbered along the chain they refer to.
B1: peptide 2 (CSMQEALS) (peptide)
peptide: CSMQEALS
notes: Mesothelin 592-598 with an added N-terminal cysteine
B2: 15B6 anti-mesothelin antibody (IgG2b) (antibody, V domains shown)
VH: EVQLQQSGPVLVKPGASVKISCKASGYSFTGYYMHWVRQSLVKRLEWIGRINPYTGVPSYKHNFKDKASLTVDKSSSTAYMELHSLTSEDSAVYYCARELGGYWGQGTTLTVSS
VL: QAVVTQESALTTSPGETVTLTCRSSTGAVTTGNYPNWVQEKPDHLFTGLIAGTNNRAPGVPARFSGSLIGDKAALTITGAQTEDEAIYFCALWFSSHWVFGGGTKLTVL
notes: Mouse hybridoma monoclonal antibody, IgG 2b; also called Mab 15B6; antibody 15B6
B3: 2B4 anti-mesothelin antibody (IgG2a) (antibody, V domains shown)
VH: EVQLQQSGPELVKPGASVKISCKASGYPFTGHYMHWVKQGHVKSLEWIGRINPYTGAINYNQNFKDKASLSVEKSSSTAYMGLHSLTSEDSAVYYCVRDLGGGYWGQGTTLTVSS
VL: B2 VL with G32S, P35A, T82P, Y88F, F94Y
notes: Mouse hybridoma monoclonal antibody, IgG 2a; also called antibody 2B4
B4: 7B5 anti-mesothelin antibody (IgG1) (antibody, V domains shown)
VH: B3 VH with A16T, S71T
VL: B2 VL with G32S, P35A, T82P, I87M, Y88F, S95G
notes: Mouse hybridoma monoclonal antibody, IgG 1; also called antibody 7B5
B5: peptide 1 (CLVLDLSMQEALS) (peptide)
peptide: CLVLDLSMQEALS
notes: Mesothelin 587-598 with an added N-terminal cysteine

How the values were obtained:
[1] = target: B4; assay: competition ELISA, antibody 30 ng/ml on coated MSLN-Fc, peptide titrated
Experimental: (§1) A competition assay was completed using the following peptides: peptide 1 having the sequence CLVLDLSMQEALS (SEQ ID NO: 61) and peptide 2 having the sequence CSMQEALS (SEQ ID NO: 62). An ELISA plate was coated with MSLN(M)-Fc or MSLN(V)-Fc. After overnight incubation, the plates were blocked and washed. The anti-mesothelin stalk antibodies of Example 1 (30 ng/ml) and peptide 1 or peptide 2 were added at different concentrations (100 micrograms/ml to 0.00001 micrograms/ml). After washing, anti-mouse IgG-HRP conjugate were added. The OD was then measured with ELISA.

[2] = target: B2; assay: as above
Experimental: as §1

[3] = target: B3; assay: as above
Experimental: as §1

[4] = target: T1, mesothelin (296-585) attached to mouse transferrin receptor (TFR) transmembrane domain, on AB1-L9 cells (human; mouse, UniProt Q13421 296-585); assay: binding to transfected AB1-L9 cells
T1 construct: The order of the parts is as printed; also called AB1-L9 cell line

Fc-mesothelin 296-599 = target: T2, Fc-mesothelin 296-599 (human, UniProt Q13421 296-599); assay: ELISA on Fc-mesothelin 296-599
T2 construct: The order of the parts follows the printed name and is not otherwise stated; not shown: Fc part
T2 sequence (Q13421 other isoform, or with tags, fused parts or gaps): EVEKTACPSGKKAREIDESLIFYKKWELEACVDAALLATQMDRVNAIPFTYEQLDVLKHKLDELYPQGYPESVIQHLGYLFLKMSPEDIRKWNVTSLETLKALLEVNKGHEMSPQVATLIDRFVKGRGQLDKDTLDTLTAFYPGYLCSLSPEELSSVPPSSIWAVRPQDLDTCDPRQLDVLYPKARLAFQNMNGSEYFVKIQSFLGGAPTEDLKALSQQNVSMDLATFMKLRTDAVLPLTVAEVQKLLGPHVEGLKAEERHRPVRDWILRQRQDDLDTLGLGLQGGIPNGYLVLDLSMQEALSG

T1 sequence (Q13421 other isoform, or with tags, fused parts or gaps): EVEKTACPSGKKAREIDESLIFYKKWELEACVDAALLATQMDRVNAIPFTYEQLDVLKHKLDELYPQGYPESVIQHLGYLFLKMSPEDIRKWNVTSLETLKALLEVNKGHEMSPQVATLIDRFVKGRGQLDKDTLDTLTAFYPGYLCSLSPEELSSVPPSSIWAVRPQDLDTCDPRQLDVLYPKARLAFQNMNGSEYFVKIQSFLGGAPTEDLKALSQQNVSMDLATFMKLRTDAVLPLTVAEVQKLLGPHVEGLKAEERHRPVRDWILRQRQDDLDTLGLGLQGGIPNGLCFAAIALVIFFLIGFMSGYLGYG

| binding result [1] | binding result [2] | binding result [3] | binding result [4] | binding result (Fc-mesothelin 296-599) | Binder |
| --- | --- | --- | --- | --- | --- |
| no binding | no binding | no binding |  |  | B1 |
|  |  |  | no binding | binds | B2 |
|  |  |  | no binding | binds | B3 |
|  |  |  | no binding | binds | B4 |
| binds | binds | binds |  |  | B5 |
